Results as given in patent US20220323619A1 (TELIX INTERNATIONAL, published 2022).
Residue numbers refer to the chain shown, from its start. Names may count otherwise.

Key:
[1] = biological target: T1, human FcγRI (Sino Biological, His-tagged) (human, UniProt P12314 16-288, limits assumed); test: Biacore single cycle, His-tagged receptor captured on anti-His CM5 chip, antibody analyte; 1:1 kinetics
T1 construct: Bought product; also called FcgRI; not shown: His tag

[2] = biological target: T2, human FcγRIIa 167R (Sino Biological, His-tagged) (human, UniProt P12318 34-218, limits assumed); test: Biacore single cycle, His-tagged receptor captured on anti-His CM5 chip, antibody analyte; steady state
T2 construct: not shown: His tag
T2 sequence (looked up): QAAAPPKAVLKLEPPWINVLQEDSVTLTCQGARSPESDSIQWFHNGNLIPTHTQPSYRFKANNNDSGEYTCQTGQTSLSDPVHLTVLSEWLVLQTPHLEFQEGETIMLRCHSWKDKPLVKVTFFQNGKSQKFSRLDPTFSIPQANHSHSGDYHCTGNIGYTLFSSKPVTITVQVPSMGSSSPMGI

[3] = biological target: T3, human FcγRIIa 167H (Sino Biological, His-tagged) (human, UniProt P12318 34-218, limits assumed); test: as above
T3 construct: not shown: His tag
T3 sequence (looked up): T2 sequence (looked up) with R134H

[4] = biological target: T4, human FcγRIIb (Sino Biological, His-tagged) (human, UniProt P31994 43-217, limits assumed); test: as above
T4 construct: not shown: His tag
T4 sequence (looked up): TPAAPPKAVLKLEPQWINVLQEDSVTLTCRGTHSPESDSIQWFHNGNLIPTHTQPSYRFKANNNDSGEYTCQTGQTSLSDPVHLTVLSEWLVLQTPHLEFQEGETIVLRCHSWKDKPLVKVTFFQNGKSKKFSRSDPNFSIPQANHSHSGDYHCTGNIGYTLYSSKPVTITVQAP

[5] = biological target: T5, human FcγRIIIa 176F (Sino Biological, His-tagged) (human, UniProt P08637 17-208); test: as above
T5 construct: not shown: His tag
T5 sequence (P08637 17-208 limits assumed): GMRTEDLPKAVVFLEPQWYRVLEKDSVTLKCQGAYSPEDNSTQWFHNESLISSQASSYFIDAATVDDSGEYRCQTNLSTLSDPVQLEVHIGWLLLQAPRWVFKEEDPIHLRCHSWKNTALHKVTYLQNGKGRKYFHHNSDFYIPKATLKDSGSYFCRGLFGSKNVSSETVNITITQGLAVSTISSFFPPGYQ

[6] = biological target: T6, human FcγRIIIa 176V (Sino Biological, His-tagged) (human, UniProt P08637 17-208); test: as above
T6 construct: not shown: His tag
T6 sequence (P08637 17-208 F176V limits assumed): as the sequence (P08637 17-208 limits assumed) above, with F160V counted along it

[7] = biological target: T7, human FcγRIIIb (Sino Biological, His-tagged) (human, UniProt O75015 17-200, limits assumed); test: as above
T7 construct: not shown: His tag
T7 sequence (O75015 17-200 limits assumed): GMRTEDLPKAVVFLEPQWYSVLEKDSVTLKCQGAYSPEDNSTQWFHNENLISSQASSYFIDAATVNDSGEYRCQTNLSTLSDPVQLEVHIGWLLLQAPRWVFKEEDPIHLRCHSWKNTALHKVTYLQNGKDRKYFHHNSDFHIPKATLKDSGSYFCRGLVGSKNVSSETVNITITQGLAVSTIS

[8] = biological target: T8, prostate-specific membrane antigen (PSMA) (R&D Systems) (UniProt Q04609 44-750); test: Biacore multi-cycle kinetics, antibody captured on Protein G chip, PSMA analyte 1.5625-25 nM
T8 construct: Soluble analyte in the Biacore assay
T8 sequence (Q04609 44-750 limits assumed): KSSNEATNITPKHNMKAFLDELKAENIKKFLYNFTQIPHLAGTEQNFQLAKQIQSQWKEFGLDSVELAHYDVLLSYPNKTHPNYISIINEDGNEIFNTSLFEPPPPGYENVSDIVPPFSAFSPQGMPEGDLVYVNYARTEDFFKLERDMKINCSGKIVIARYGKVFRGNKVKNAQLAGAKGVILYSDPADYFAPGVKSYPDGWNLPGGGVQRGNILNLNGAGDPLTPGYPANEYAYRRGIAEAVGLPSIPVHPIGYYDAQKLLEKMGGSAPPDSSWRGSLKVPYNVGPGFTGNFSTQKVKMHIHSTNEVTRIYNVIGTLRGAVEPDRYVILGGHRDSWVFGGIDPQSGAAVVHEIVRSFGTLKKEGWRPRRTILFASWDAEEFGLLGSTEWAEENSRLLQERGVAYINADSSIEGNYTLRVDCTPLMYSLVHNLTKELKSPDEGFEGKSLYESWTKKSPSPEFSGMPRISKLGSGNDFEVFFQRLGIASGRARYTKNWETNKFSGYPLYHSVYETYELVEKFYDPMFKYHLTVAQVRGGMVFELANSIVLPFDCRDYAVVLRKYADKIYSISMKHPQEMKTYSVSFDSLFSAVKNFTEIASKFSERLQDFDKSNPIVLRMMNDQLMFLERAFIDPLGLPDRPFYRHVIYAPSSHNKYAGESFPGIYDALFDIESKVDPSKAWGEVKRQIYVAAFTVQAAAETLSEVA

Measured: binding result

T1 sequence (P12314 16-288 limits assumed): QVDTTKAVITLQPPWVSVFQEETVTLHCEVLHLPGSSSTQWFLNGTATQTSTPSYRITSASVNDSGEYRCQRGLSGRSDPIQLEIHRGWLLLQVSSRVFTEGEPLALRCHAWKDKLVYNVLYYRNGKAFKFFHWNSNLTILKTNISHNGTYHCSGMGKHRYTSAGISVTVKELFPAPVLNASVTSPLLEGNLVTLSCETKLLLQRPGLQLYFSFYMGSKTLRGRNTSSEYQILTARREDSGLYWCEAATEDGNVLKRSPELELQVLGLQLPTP

B1: ANT4044 IgG1 (H310A, H435Q) (antibody)
heavy: not shown
light: DIQMTQSPSTLSASVGDRVTITCKASQDVGTAVDWYQQKPGQAPKLLIYWASTRHTGVPDRFSGSGSGTDFTLTISRLQPEDFAVYYCQQYNSYPLTFGQGTKVDIKRTVAAPSVFIFPPSDEQLKSGTASVVCLLNNFYPREAKVQWKVDNALQSGNSQESVTEQDSKDSTYSLSSTLTLSKADYEKHKVYACEVTHQGLSSPVTKSFNRGEC
notes: also called ANT4044-IgG1-2M; ANT4044-FcRn
binds: [1] | [2] | [3] | [4] | [5] | [6] | [7]

B2: ANT4044-A2 IgG1 (H310A, H435Q) (antibody)
heavy: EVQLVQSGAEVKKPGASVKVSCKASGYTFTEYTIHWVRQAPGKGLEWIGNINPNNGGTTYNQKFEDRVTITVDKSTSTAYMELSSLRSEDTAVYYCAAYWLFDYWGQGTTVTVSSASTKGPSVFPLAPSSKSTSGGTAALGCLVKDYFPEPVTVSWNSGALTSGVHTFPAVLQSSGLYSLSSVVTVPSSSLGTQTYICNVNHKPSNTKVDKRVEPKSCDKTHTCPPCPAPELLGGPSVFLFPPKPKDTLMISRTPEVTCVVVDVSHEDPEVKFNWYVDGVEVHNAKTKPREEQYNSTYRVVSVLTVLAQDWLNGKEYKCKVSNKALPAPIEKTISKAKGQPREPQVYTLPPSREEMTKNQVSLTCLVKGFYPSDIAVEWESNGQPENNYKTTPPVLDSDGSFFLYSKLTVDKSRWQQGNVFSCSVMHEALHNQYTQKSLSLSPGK
light: B1 light
notes: also called ANT4044-A2 RADmAb IgG1
binds: [8] | [1] | [2] | [3] | [4] | [5] | [6] | [7]

B3: ANT4044-A2 IgG4 (S228P, L235E, H310A, H435Q) (antibody)
heavy: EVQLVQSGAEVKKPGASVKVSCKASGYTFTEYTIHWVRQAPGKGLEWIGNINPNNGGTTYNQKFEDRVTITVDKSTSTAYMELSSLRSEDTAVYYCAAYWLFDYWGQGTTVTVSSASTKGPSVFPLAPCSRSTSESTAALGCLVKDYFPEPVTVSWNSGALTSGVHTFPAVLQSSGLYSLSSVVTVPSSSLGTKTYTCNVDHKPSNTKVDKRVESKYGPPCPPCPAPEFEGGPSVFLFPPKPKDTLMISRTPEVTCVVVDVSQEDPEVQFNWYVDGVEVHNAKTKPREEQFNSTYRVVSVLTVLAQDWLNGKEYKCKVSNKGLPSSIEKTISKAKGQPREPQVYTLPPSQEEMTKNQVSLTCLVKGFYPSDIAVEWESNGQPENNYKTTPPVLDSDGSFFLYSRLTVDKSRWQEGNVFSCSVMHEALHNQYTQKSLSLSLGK
light: B1 light
notes: also called ANT4044-A2 RADmAb IgG4
binds: [8]

B4: ANT4044-A2 IgG1 (antibody)
heavy: not shown
light: B1 light
notes: also called ANT4044-A2 expressed as unmodified IgG1
binds: [8]
